{
  "source": "paper PMC4432310",
  "about": "“Different Ligands of the TRPV3 Cation Channel Cause Distinct Conformational Changes as Revealed by Intrinsic Tryptophan Fluorescence Quenching*” (The Journal of Biological Chemistry, 2015)",
  "proteins": {"B1": {"name": "human TRPV3 fused to C-terminal GFP and His8 tag (natural protein, UniProt Q8NET8 1-790, looked up)", "chain": "MKAHPKEMVPLMGKRVAAPSGNPAILPEKRPAEITPTKKSAHFFLEIEGFEPNPTVAKTSPPVFSKPMDSNIRQCISGNCDDMDSPQSPQDDVTETPSNPNSPSAQLAKEEQRRKKRRLKKRIFAAVSEGCVEELVELLVELQELCRRRHDEDVPDFLMHKLTASDTGKTCLMKALLNINPNTKEIVRILLAFAEENDILGRFINAEYTEEAYEGQTALNIAIERRQGDIAALLIAAGADVNAHAKGAFFNPKYQHEGFYFGETPLALAACTNQPEIVQLLMEHEQTDITSRDSRGNNILHALVTVAEDFKTQNDFVKRMYDMILLRSGNWELETTRNNDGLTPLQLAAKMGKAEILKYILSREIKEKRLRSLSRKFTDWAYGPVSSSLYDLTNVDTTTDNSVLEITVYNTNIDNRHEMLTLEPLHTLLHMKWKKFAKHMFFLSFCFYFFYNITLTLVSYYRPREEEAIPHPLALTHKMGWLQLLGRMFVLIWAMCISVKEGIAIFLLRPSDLQSILSDAWFHFVFFIQAVLVILSVFLYLFAYKEYLACLVLAMALGWANMLYYTRGFQSMGMYSVMIQKVILHDVLKFLFVYIVFLLGFGVALASLIEKCPKDNKDCSSYGSFSDAVLELFKLTIGLGDLNIQQNSKYPILFLFLLITYVILTFVLLLNMLIALMGETVENVSKESERIWRLQRARTILEFEKMLPEWLRSRFRMGELCKVAEDDFRLCLRINEVKWTEWKTHVSFLNEDPGPVRRTDFNKIQDSSRNNSKTTLNAFEEVEEFPETSV", "notes": "human TRPV3 (transient receptor potential vanilloid 3), full-length; theoretical mass of the monomer printed as 90.6 kDa; A PreScission cleavage site lies between TRPV3 and GFP-His8; The fusion is uncleaved in the FSEC runs; also called hTRPV3-GFP; hTRPV3; source: Sf9 insect cells (baculovirus), detergent-solubilized crude membranes, not purified; not shown: GFP, C-terminal, kept"}, "B2": {"name": "human TRPV3, detergent-purified, GFP-His tag cleaved off (natural protein, UniProt Q8NET8 1-790, looked up)", "chain": "B1 chain", "notes": "human TRPV3 (transient receptor potential vanilloid 3), full-length; theoretical mass of the monomer printed as 90.6 kDa; also called hTRPV3; detergent-purified hTRPV3; source: Sf9 insect cells (baculovirus), purified (GFP trap, PreScission cleavage, SEC) in DDM and CHAPS; not shown: GFP, C-terminal, cleaved; His8, C-terminal, cleaved"}},
  "key": {"[1]": {"target": "the molecule itself", "test": "SEC; fluorescence detection SEC (FSEC) of detergent-solubilized crude Sf9 membranes on Superose 6 10/300 GL; buffer A (200 mM NaCl, 50 mM Tris, pH 7.5) with DM, DDM or LDAO at ~1.5 x CMC; oligomer judged from the retention volume"}, "[2]": {"target": "the molecule itself", "test": "SEC; UV detection SEC of hTRPV3 eluted from the GFP trap, Superose 6 10/300 GL; buffer B (100 mM NaCl, 10 mM Tris, pH 7.5) with 0.03% DDM and 0.1% CHAPS"}},
  "data": [
    {"protein": "B1", "values": [
      {"measurement": "stoichiometry N", "setting": "[1]", "result": 4}
    ]},
    {"protein": "B2", "values": [
      {"measurement": "stoichiometry N", "setting": "[2]", "result": 4}
    ]}
  ]
}
